Measured values from patent US20260201038A1 (CELLABMED, published 2026).

How the values were obtained:
[1] = target: mouse B7-H3 expressed on Raji cells (mouse) (UniProt Q8VE98); assay: flow cytometry on Raji cells expressing mouse B7-H3; the vector control Raji cells show < 10%
[2] = target: B7-H3 on human cancer cells (human) (UniProt Q5ZPR3); assay: flow cytometry on HT29 colorectal cancer cells; control (secondary antibody only) < 15%
[3] = target: B7-H3 on human cancer cells (human) (UniProt Q5ZPR3); assay: flow cytometry on U251 brain tumor cells; control (secondary antibody only) < 10%
B7-H4 = target: T1, B7-H4 (UniProt Q7Z7D3 25-258, limits assumed); assay: indirect ELISA, B7-H4 coated at 1 ug/mL, absorbance at 450 nm
T1 sequence (looked up): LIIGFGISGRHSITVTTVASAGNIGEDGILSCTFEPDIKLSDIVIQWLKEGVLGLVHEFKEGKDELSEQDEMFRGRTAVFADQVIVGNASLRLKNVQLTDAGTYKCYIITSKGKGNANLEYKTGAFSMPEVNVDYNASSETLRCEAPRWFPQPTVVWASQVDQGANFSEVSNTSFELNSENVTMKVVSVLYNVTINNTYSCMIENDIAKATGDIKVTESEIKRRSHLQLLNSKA
Method: [The procedure below names another target; the source lists this target under the same test.] (§1) The binding ability of 2D IgG prepared in Example 2 for recombinant B7-H3 protein was investigated by indirect ELISA. For indirect ELISA, recombinant human 4lg B7-H3, recombinant human 2lg B7-H3 and recombinant mouse B7-H3 were diluted respectively to 1 μg/mL in 50 μL of PBS and adsorbed overnight onto a 96-well immunoplate (Corning, USA) by storing at 4° C. After reaction with a buffer solution containing 3% bovine serum albumin at room temperature for 1 hour, followed by washing 3 times with a buffer solution containing 0.5% Tween 20, each well was treated with 50 μL of the antibodies diluted serially (0.0001, 0.0003, 0.001, 0.003, 0.01, 0.03, 0.1, 0.3, 1, 3 and 10 nM). For antigen-antibody binding, the mixture was reacted at room temperature for 2 hours, and then washed 3 times with a buffer solution containing 0.5% Tween 20. After treating each well with 50 μL of anti-human immunoglobulin Fc-HRP antibodies (Jackson Immunoresearch, USA) diluted to 1:3,000, reaction was conducted at room temperature for 1 hour. […] As a result of measuring absorbance at 450 nm using a spectrophotometer (Biotek, USA), it was confirmed that 2D IgG binds to B7-H3, and the binding ability was in the order of 4lg B7-H3, 2lg B7-H3 and mouse B7-H3 (FIG. 2a). […]

[4] = target: B7-H3 on human cancer cells (human) (UniProt Q5ZPR3); assay: flow cytometry on A2780 ovarian cancer cells; control (secondary antibody only) < 5%
[5] = target: B7-H3 on human cancer cells (human) (UniProt Q5ZPR3); assay: flow cytometry on HepG2 liver cancer cells; control (secondary antibody only) < 10%
[6] = target: B7-H3 on human cancer cells (human) (UniProt Q5ZPR3); assay: cell-based or functional assay
[7] = target: human 2Ig B7-H3 expressed on Raji cells (human) (UniProt Q5ZPR3); assay: flow cytometry on Raji cells expressing 2Ig B7-H3; the vector control Raji cells show < 2%
[8] = target: B7-H3 on human cancer cells (human) (UniProt Q5ZPR3); assay: flow cytometry on HCT116 colorectal cancer cells; control (secondary antibody only) < 25%
B7-1 = target: T2, B7-1 (UniProt P33681 35-242); assay: indirect ELISA, B7-1 coated at 1 ug/mL, absorbance at 450 nm
T2 sequence (looked up): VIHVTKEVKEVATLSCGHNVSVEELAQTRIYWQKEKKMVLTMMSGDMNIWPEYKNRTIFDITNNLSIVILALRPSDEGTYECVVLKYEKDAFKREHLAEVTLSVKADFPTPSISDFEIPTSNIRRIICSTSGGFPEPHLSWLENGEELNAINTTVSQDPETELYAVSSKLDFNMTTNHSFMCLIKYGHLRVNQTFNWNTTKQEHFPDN
Method: [The procedure below names another target; the source lists this target under the same test.] as §1

B7-DC = target: T3, B7-DC (UniProt Q9BQ51 20-219, limits assumed); assay: indirect ELISA, B7-DC coated at 1 ug/mL, absorbance at 450 nm
T3 sequence (looked up): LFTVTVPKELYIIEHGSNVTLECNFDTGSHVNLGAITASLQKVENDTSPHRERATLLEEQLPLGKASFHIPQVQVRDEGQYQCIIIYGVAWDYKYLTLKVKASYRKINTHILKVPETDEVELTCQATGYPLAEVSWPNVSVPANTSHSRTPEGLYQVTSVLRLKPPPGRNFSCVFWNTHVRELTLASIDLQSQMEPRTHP
Method: [The procedure below names another target; the source lists this target under the same test.] as §1

B7-2 = target: T4, B7-2 (UniProt P42081 24-247, limits assumed); assay: indirect ELISA, B7-2 coated at 1 ug/mL, absorbance at 450 nm
T4 sequence (looked up): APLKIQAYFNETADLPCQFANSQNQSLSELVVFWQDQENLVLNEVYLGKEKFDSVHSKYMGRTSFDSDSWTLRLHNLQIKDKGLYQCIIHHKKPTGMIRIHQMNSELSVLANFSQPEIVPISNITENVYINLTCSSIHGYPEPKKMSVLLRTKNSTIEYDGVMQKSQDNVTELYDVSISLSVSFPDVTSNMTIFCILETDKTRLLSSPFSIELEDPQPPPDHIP
Method: [The procedure below names another target; the source lists this target under the same test.] as §1

B7-H1 = B7-H1 (UniProt Q9NZQ7 19-239); assay: indirect ELISA, B7-H1 coated at 1 ug/mL, absorbance at 450 nm
Method: [The procedure below names another target; the source lists this target under the same test.] as §1

B7-H1, sequence (Q9NZQ7 19-239 limits assumed): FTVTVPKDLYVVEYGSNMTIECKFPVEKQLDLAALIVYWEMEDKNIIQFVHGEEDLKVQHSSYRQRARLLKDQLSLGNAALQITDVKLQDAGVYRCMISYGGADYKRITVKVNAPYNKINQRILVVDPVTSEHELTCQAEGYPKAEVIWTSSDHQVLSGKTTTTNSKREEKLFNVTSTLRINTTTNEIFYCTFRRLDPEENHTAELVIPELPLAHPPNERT
mouse B7-H3 expressed on Raji cells (mouse), sequence (Q8VE98 other isoform, or with tags, fused parts or gaps, form in doubt): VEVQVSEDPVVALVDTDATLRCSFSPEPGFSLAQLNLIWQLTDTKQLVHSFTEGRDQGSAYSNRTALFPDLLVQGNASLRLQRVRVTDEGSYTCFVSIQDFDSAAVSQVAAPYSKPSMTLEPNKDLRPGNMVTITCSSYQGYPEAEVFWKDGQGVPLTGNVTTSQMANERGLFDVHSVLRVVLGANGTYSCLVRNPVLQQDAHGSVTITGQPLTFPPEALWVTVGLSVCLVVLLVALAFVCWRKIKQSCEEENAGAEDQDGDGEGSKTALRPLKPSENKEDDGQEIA
human 2Ig B7-H3 expressed on Raji cells (human), sequence (Q5ZPR3 other isoform, or with tags, fused parts or gaps, form in doubt): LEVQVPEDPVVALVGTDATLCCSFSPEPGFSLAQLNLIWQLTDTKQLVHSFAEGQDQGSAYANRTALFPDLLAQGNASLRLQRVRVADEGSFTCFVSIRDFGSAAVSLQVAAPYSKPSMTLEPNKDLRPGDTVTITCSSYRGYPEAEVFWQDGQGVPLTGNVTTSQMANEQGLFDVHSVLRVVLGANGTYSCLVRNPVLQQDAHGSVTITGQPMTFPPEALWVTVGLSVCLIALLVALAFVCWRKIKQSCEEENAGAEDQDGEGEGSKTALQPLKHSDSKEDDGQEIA

B1: G2D IgG (antibody, V domains shown)
VH: QVQLVESGGGLVQPGGSLRLSCSASGFDFSSYPMVWVRQAPGKGLEYVSSINSGGSWTGYGAAVKGRATISRDNSKNTLYLQMNSLRAEDTATYYCARAYGAATIDAWGQGTTVTVSS
VL: SYELTQPPSVSVSPGQTARITCSGGSIGYGWYQQKAPGQAPVTVIYYNDRRPSGIPERFSGSKSGTTNTLTISGVQAEDEADYYCGSADSSSTYTGIFGGGTKLTVL
notes: The back-substitutions (L46T, S66K, V71N in VL); also called humanized 2D; G2D antibody
- % of cells in the positive gate (P5) [1]: > 95%
- % of cells in the positive gate [2]: > 95%
- % of cells in the positive gate [3]: > 95%
- binding result (B7-H4): no binding (tested: 10 nM)
- % of cells in the positive gate [4]: > 95%
- % of cells in the positive gate [5]: > 95%
- T cell-mediated A549 cell-killing effect (GFP fluorescence of A549 cells after 48 h co-culture with activated PBMCs; negative control group = 100) [6]: 69.3
- T cell-mediated cancer cell-killing effect as compared to the negative control group [6]: 30%
- % of cells in the positive gate (P3) [7]: > 40%
- % of cells in the positive gate [8]: > 95%
- binding result (B7-1): no binding (tested: 10 nM)
- binding result (B7-DC): no binding (tested: 10 nM)
- binding result (B7-2): no binding (tested: 10 nM)
- binding result (B7-H1): no binding (tested: 10 nM)
